Results on one molecule are retold here after PMC12557302.

This data set concerns the target CD36 on human monocytes / monocyte membrane extract (Homo sapiens, UniProt P16671 1-472). The data set is described as follows: pull-down with mass spectrometry.

CD36 on human monocytes / monocyte membrane extract, sequence (P16671 whole entry): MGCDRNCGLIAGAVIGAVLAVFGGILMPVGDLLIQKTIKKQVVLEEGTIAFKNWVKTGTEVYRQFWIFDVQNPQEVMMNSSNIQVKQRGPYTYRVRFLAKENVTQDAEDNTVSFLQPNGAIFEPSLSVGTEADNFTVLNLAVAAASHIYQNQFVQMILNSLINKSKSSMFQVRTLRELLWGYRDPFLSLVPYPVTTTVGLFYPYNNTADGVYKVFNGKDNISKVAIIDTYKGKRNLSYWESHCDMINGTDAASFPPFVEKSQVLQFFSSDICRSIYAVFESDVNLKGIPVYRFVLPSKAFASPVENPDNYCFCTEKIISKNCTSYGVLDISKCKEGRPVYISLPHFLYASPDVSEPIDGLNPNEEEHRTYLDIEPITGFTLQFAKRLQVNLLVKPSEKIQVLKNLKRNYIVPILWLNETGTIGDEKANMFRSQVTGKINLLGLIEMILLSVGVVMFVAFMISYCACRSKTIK

B1: CD36Apt (Mono.A2) (ssDNA)
DNA: ATCCAGAGTGACGCAGCAGAAGAGTAGATGAAACGTTTTTTCGCCCGATAAAAGGGACGTGCGTCAGACATGGACACGGTGGCTTAGT
Regarding B1, the binding result was “binds”.
